Experimental data as given in the DeepSol protein solubility set.

Assay: soluble on expression in E. coli; label from the status in PepcDB or PDB records

Sequence	soluble on expression in E. coli
MGSDKIHHHHHHMRRTDKKKTFGQQSSKVTQLADTLSQAISMKKFREGDSLPSINQLSAEYGVSRDTVFKAFLDLRERGLIDSTPGKGYYVTSQVTNVLLLLDQYTPFKEALYNSFVKHLPINYKVDLLFHQYNERLFNTIIRESVGKYNKYIVMNFDNEKFSMVLNKIHPTKLLLLDFGKFEKEKYSYICQDFDEAFYQALLMLKEKLRHYPQLVLLFSKNLKHPQSSKEYFTRFCEEQGFLCEIQEDIENLTVRKGVVYIAIKQQDVVKVVKQGRLEGLKCGKDFGLLAYNDIPSYEVIDEGITSLSIDWEMMGNEAANFVLNNVPIQKYLPTEVRLRKSL	not soluble
MSLKITSVRSFLLSYPLPEPVRLPFHGGERTILKRDAMFIRVEADSGLIGYAPGPGSEQAHKAIQQTIAPFLEDRVLADPDALRVLFLQGPGIDAELAKIYCAVEIALYDLVGKARGIPISEMIGGRVRDTIRLYGSAGMYMSPEGYAAEAAAIAALGFRAYKMRPAGGPEQDLETVRQMRKAVGPDFDLMVDAHTWWRMGDSSYPADTVEQLARDMSAYHIAWLEEPLPPDDHAGYLALKQKDLVLLATGEHEPNEDRYLDLILTQAVDYIQMDVCCQGGYALGRRLFAEIARQGLSFAFHSWGTALEVMAAAHLGICWPQMIAEWLEYPCYSSPGRVGMYPFPLAAEILTEPLEIERGDLLVPRAPGLGVAVDESVIERYPWIPGPWSYFRIDSPAENRAVTSDHSVQWDPEAKEGHHHHHH	soluble
MHHISLTPFGRQPVTAGILASQRLAEARSPLPEIDKWALFADLRTARARFGVSDRDLAVLYALLSFLPGRVLTDAAPLVVFPSNATLSDRAHGMAESTLRRHLAALVEAGLVARRDSANGKRYAHRNRAGELVTAYGFDLRPLLVRAAEIAETAAALEAEAEAMARARTALVLKLRDATKLAAYADPEGRAAGIEPRLMPIRRALRRRLTLADLAEMARTLDLVLGDIRRTLALRAAEMDGTVGRIERHHTESKTESSDLEGGHACGKTSGEAEKDCRNIGGESPDEKANRPSPNRAEPDEARPEELASLEINDNQRPAPTLPLGLVLKACPDLEPYAPEIRNWRDLTAAASRLRGMMGITPSAWEEAKAEMGAETASVALAAILQRFASIRNPGGYLRALTRRASEGAFSPTPMIMALLAETREA	not soluble
MSLKTGRALRIAVLVSGRLNLWFSSSIIEGLNEVFHDEGYDISIYQMSSTEERSEFFDMLPVRRNVDAVIVISFDIASNEIRQLRSVDVPIIGINSSLPEERGFNAAVRIDDKQGSELAARHLMMLGHRDIVYIRSDREVTLHFSVQGRYESFMACCQANGVEPRVLVTDAGRNRISKVVTQLLSLDHMPTAIACQEDGIAVPLLFQLERNGFTVPNDISIIGYDDSVYARDLGLTTIRQTPVEMAREAARMTLALIEKQPLDEPFKTFPAQLIVRSTTARLHSEGHHHHHH	soluble
MSLGDPGLKFQEYILQHIEPSKSYEIAICQSIGRRGKMEDTVVVDCSSIEGTDIIGVFDGHNGKDAAYLCTEQYIKTFKENEGTFEAKLIKTHKQLHDKSCETSKSGTTSTVAFIDKDTIRIAYCGDSPAYIYKNNKIKKITKEHKATNSAEVERIEMNGGVVFGMFGVKRVNGQIMVTRSIGDPSLHPPLTTEPDFIKLEKKGIELLFLMSDGITDGVTEKELEDIISKSGGMFNIAFDTLKLAYVNESSDNLTFIVIKINEGHHHHHH	soluble
MRGSHHHHHHGSELSKSSIVDKVELDHTTLYQGEMTSIKVSFSDKENQKIKPGDTITLTLPDALVGMTENDSSPRKINLNGLGEVFIYKDHVVATFNEKVESLHNVNGHFSFGIKTLITNSSQPNVIETDFGTATATQRLTIEGVTNTETGQIERDYPFFYKVGDLAGESNQVRWFLNVNLNKSDVTEDISIADRQGSGQQLNKESFTFDIVNDKETKYISLAEFEQQGYGKIDFVTDNDFNLRFYRDKARFTSFIVRYTSTITEAGQHQATFENSYDINYQLNNQDATNEKNTSQVKNVFVEGEASGNQNVEMPTEESLDIPLETIDEWEPKTPTSEQATETSEKTD	soluble
MDIISKSGEGNKYTINSAIAFVAYASHIDINTTEFSKVLSGLRDFINDEAIRLGGKISDGSFNKCNGDWYEWLIGIRAIEFFLESETNFIVVKMPNATSFDVMSIYKSCLSEFIYDLRSKLSLNNVNLITSNPDFSIIDIRGRREELKSMLKDISFSNISLSTISEIDNLYKNFIDYAELEHIKSFLSVKTTFRPDRRLQLAHEGSLMKALYTHLQTRTWTINPTGIRYYAAATSIGNADVIGLKTVATHSITDVKSLPQSAVDEIFKINSVLDVDSCLSHILSS	soluble
